{
  "source": "paper PMC4883682",
  "about": "“STIM1 activation is regulated by a 14 amino acid sequence adjacent to the CRAC activation domain” (AIMS biophysics, 2016)",
  "molecular_target": "the molecule itself",
  "test": "cross-linking; chemical crosslinking with dithiobis(succinymidyl propionate); constructs separately expressed; unstimulated state (Supplemental Figure S2)",
  "data": [
    {"protein": "STIM1(del344-448)-mApple (natural protein, human, UniProt Q13586 23-685, looked up, signal peptide in the construct; source: COS7 cells, transiently transfected (Lipofectamine 2000), in live cells; not shown: mApple, C-terminal, kept) LSHSHSEKATGTSSGANSEESTAAEFCRIDKPLCHSEDEKLSFEAVRNIHKLMDDDANGDVDVEESDEFLREDLNYHDPTVKHSTFHGEDKLISVEDLWKAWKSSEVYNWTVDEVVQWLITYVELPQYEETFRKLQLSGHAMPRLAVTNTTMTGTVLKMTDRSHRQKLQLKALDTVLFGPPLLTRHNHLKDFMLVVSIVIGVGGCWFAYIQNRYSKEHMKKMMKDLEGLHRAEQSLHDLQERLHKAQEEHRTVEVEKVHLEKKLRDEINLAKQEAQRLKELREGTENERSRQKYAEEELEQVREALRKAEKELESHSSWYASLVAALNIDPSWMGSTRPNPAHFIMTDDVDDMDEEIVSPLSMQSPSLQSSVRQRLTEPQHGLGSQRDLTHSDSESSLHMSDRQRVAPKPPQMSRAADEALNAMTSNGSHRLIEGVHPGSLVEKLPDSPALAKKALLALNHGLDKAHSLMELSPSAPPGGSPHLDSSRSHSPSSPDPDTPSPVGDSRALQASRNTRIPHLAGKKAVAEEDNGSIGEETDSSPGRKKFPLKIFKKPLKK", "values": [
      {"measurement": "stoichiometry N", "value": 2}
    ]},
    {"protein": "STIM1(del302-462)-mApple (natural protein, human, UniProt Q13586 23-685, looked up, signal peptide in the construct; source: COS7 cells, transiently transfected (Lipofectamine 2000), in live cells; not shown: mApple, C-terminal, kept) LSHSHSEKATGTSSGANSEESTAAEFCRIDKPLCHSEDEKLSFEAVRNIHKLMDDDANGDVDVEESDEFLREDLNYHDPTVKHSTFHGEDKLISVEDLWKAWKSSEVYNWTVDEVVQWLITYVELPQYEETFRKLQLSGHAMPRLAVTNTTMTGTVLKMTDRSHRQKLQLKALDTVLFGPPLLTRHNHLKDFMLVVSIVIGVGGCWFAYIQNRYSKEHMKKMMKDLEGLHRAEQSLHDLQERLHKAQEEHRTVEVEKVHLEKKLRDEINLAKQEAQRLKSTRPNPAHFIMTDDVDDMDEEIVSPLSMQSPSLQSSVRQRLTEPQHGLGSQRDLTHSDSESSLHMSDRQRVAPKPPQMSRAADEALNAMTSNGSHRLIEGVHPGSLVEKLPDSPALAKKALLALNHGLDKAHSLMELSPSAPPGGSPHLDSSRSHSPSSPDPDTPSPVGDSRALQASRNTRIPHLAGKKAVAEEDNGSIGEETDSSPGRKKFPLKIFKKPLKK", "values": [
      {"measurement": "stoichiometry N", "value": 2}
    ]}
  ]
}
